The text below walks through data of US20140057253, “METHOD TO PREDICT THE PATTERN OF LOCOMOTION IN HORSES” (CAPILET GENETICS AB, published 2014).

The target in one series is DMRT3 wild-type (Equus caballus, UniProt F6W2R2 SEQ:1-474). Briefly: EMSA; 150x cold competitor used; on ice 20 min then room temperature 30 min. The following applies: tags: myc; label: 32P (Klenow fill-in with alpha-32P-dCTP). The procedure: (§1) The oligonucleotide 5′-ggatcc[…]-3′ and its complementary sequence were annealed in 10 mM Tris pH 7.5, 1 mM EDTA, 50 mM KCl by firstly heating to 95° C. for 2 min and thereafter cooled to 25° C. (2 min/degree). The duplex was labelled with Klenow DNA polymerase and [α-32P]-dCTP and purified using a Bio-Rad Micro Bio-Spin 30 column. DMRT3 wild type and mutant protein were produced by in vitro-translation using a TNT Quick Coupled Transcription/Translation System (Promega). EMSA was performed as described by Culbertson & Leeds, 2003 (Looking at mRNA decay pathways through the window of molecular evolution. Curr. Opin. Genet. Dev. 13, 207-214) with the following modifications. No plasmid DNA was added and 1.0 μl in vitro-translated protein and 150× cold competitor were used. The reaction mixture was incubated on ice for 20 min before adding the radioactive oligo and thereafter incubated at room temperature for 30 min. Gels were run at 150 V in room temperature. […] It may therefore be a dominant negative form with normal DNA-binding but defective interaction with other proteins. This would be consistent with the clear phenotypic effects observed in heterozygotes. However, the mutation is not fully dominant as CA heterozygotes and AA homozygotes show distinct phenotypic differences.
DMRT3 wild-type, sequence (F6W2R2 whole entry A151D): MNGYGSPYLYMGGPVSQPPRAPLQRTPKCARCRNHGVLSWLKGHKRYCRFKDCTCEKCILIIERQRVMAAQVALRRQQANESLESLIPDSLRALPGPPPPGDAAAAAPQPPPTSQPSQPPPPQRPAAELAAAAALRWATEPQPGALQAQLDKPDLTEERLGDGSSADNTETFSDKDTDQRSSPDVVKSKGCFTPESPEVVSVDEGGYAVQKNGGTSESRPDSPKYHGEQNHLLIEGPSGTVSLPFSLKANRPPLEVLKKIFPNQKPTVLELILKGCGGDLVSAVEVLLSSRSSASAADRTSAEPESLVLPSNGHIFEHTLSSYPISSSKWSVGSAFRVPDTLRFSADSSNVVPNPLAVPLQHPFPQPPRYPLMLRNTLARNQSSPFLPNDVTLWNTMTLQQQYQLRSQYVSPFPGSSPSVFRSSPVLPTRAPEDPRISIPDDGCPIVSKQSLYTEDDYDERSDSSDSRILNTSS

In series [1] the target is DMRT3 Ser301STOP mutant (truncated, 300 aa) (Equus caballus, UniProt J7FCF0 SEQ:1-300). The series can be described thus: EMSA; 150x cold competitor used; on ice 20 min then room temperature 30 min; truncation retains DNA binding. Particulars: tags: myc; label: 32P (Klenow fill-in with alpha-32P-dCTP). The method, then:
as §1
(In general: In EMSA bound probe runs differently from free probe, usually more slowly.)

DMRT3 Ser301STOP mutant (truncated, 300 aa), sequence (J7FCF0 other isoform, or with tags, fused parts or gaps mutant): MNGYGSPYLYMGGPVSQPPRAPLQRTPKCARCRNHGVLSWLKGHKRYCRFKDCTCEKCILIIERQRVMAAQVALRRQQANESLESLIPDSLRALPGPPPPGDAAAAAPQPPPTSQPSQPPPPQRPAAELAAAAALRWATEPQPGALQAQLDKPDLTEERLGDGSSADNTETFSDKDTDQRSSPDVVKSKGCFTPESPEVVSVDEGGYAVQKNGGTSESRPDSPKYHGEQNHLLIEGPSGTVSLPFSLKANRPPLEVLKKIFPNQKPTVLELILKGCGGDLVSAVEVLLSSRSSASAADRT

B1: DMRT-binding motif oligonucleotide (dsDNA)
DNA 1: GGATCCTCGAGAACAATGTAACAATTTCGCCC
DNA 2: GGGCGAAATTGTTACATTGTTCTCGAGGATCC
Regarding B1, the binding result (with DMRT3 wild-type; in series [1]) was “binds” in each case.
